These results are taken from paper PMC10675231, “Electrochemiluminescence Aptasensor with Dual Signal Amplification by Silica Nanochannel-Based Confinement Effect on Nanocatalyst and Efficient Emitter Enrichment for Highly Sensitive Detection of C-R”.

The target in series [1] is T1, C-reactive protein (CRP) (human, UniProt P02741 19-224).
T1 sequence: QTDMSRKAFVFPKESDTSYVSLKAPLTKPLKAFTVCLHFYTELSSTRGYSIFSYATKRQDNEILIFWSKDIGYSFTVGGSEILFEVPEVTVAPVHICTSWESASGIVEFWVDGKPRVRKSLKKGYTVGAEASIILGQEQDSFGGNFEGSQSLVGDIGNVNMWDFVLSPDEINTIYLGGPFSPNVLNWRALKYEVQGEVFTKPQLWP
Kind of series: electrochemiluminescence aptasensor; no significant signal change; 0.01 M phosphate buffer (KH2PO4/Na2HPO4) pH 7.4; CRP incubation 80 min; binding temperature not stated. Particulars: protein: recombinant; chain copies: 5.

Another series addresses T2, alpha-fetoprotein (AFP) (UniProt P02771 19-609).
T2 sequence: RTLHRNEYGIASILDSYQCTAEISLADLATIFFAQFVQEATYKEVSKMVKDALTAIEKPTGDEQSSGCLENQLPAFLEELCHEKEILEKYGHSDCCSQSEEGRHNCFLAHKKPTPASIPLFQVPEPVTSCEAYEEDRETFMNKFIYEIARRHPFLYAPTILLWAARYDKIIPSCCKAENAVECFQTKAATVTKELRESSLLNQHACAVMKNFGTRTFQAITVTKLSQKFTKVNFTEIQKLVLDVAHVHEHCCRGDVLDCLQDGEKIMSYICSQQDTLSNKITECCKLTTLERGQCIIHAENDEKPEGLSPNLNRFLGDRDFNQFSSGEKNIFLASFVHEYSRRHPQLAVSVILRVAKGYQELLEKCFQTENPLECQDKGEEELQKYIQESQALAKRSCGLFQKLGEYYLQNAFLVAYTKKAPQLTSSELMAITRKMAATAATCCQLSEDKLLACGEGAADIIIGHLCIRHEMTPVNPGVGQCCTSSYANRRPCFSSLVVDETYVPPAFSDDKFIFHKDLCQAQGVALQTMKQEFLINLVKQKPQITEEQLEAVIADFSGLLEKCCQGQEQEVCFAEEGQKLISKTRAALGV
Kind of series: electrochemiluminescence aptasensor; 100 ng/mL AFP; change very minimal vs 10 ng/mL CRP; 0.01 M phosphate buffer (KH2PO4/Na2HPO4) pH 7.4; CRP incubation 80 min; binding temperature not stated. Particulars: protein: commercial.

The target of series [2] is cancer antigen 15-3 (CA15-3) (UniProt P15941 24-1097). Briefly: electrochemiluminescence aptasensor; 100 ng/mL CA15-3; change very minimal vs 10 ng/mL CRP; 0.01 M phosphate buffer (KH2PO4/Na2HPO4) pH 7.4; CRP incubation 80 min; binding temperature not stated. The conditions noted are these: protein: commercial.
Series [3] concerns the target T1, C-reactive protein (CRP). Kind of series: electrochemiluminescence aptasensor; Ru(bpy)3 2+/TPrA; BSA-blocked; linear 10 pg/mL-1 ug/mL, LOD 7.4 pg/mL; 0.01 M phosphate buffer (KH2PO4/Na2HPO4) pH 7.4; CRP incubation 80 min; binding temperature not stated. The conditions noted are these: protein: recombinant; chain copies: 5.

Chain of cancer antigen 15-3 (CA15-3) (P15941 24-1097): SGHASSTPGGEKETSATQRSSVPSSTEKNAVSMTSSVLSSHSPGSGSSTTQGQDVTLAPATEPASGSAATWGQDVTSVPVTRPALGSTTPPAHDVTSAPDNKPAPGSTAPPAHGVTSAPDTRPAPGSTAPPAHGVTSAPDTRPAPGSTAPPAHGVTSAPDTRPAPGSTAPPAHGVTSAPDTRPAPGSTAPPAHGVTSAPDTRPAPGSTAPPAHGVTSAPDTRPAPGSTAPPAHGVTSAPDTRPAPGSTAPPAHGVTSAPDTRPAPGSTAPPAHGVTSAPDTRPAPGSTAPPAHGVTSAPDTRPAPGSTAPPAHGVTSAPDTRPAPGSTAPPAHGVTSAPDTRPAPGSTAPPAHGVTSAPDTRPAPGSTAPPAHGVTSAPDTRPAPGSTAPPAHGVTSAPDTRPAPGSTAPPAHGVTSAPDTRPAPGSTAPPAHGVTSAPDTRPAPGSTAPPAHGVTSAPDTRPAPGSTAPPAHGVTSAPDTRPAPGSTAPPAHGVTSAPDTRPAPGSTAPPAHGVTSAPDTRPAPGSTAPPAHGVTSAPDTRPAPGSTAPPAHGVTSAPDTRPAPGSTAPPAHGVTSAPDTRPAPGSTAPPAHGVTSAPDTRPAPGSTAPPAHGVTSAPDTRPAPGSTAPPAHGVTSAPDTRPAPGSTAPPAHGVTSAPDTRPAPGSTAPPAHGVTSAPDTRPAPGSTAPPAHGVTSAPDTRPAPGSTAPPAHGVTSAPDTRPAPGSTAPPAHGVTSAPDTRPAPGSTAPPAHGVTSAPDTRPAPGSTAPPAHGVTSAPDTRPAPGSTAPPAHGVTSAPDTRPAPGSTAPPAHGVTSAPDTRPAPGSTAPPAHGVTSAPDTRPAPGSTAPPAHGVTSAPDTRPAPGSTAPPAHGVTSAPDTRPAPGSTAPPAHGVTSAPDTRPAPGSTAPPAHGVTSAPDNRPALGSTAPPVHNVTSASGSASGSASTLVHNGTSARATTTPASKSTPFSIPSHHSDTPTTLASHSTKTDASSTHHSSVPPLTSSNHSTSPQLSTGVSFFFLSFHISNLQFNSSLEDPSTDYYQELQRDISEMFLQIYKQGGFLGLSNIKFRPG

B1: CEA aptamer (ssDNA)
DNA: ATACCAGCTTATTCAATT
modifications: 3'-NH2 (sequence line; text also says 5' amino)
With B1, the binding result with C-reactive protein (CRP) [1] is “no binding”.

B2: PSA aptamer (ssDNA)
DNA: ATTAAAGCTCGCCATCAAATAGCTGC
modifications: 5'-NH2
On to B2, for which, in the series with C-reactive protein (CRP) [1], the binding result was “no binding”.

B3: AFB1 aptamer (ssDNA)
DNA: GTTGGGCACGTGTTGTCTCTCTGTGTCTCGTGCCCTTCGCTAGGCCCACA
modifications: 3'-NH2 (sequence line; text also says 5' amino)
With B3, the binding result with C-reactive protein (CRP) [1] was “no binding”.

B4: CRP aptamer (ssDNA)
DNA: CGAAGGGGATTCGAGGGGTGATTGCGTGCTCCATTTGGTG
modifications: 5'-NH2
Turning to B4, the binding result is recorded as “no binding” with alpha-fetoprotein (AFP), “no binding” in series [2] and “binds” with C-reactive protein (CRP) [3].
